# T1: gp130 bound OSM-WT (gp130:OSM-WT) (human, UniProt P40189 23-619)
# T1 construct: extracellular domain; Non-covalent complex formed on the plate: gp130 coated, then 200 nM OSM-WT; also called OSM-WT with gp130; not shown: N-terminal FLAG tag
# T1 sequence 1: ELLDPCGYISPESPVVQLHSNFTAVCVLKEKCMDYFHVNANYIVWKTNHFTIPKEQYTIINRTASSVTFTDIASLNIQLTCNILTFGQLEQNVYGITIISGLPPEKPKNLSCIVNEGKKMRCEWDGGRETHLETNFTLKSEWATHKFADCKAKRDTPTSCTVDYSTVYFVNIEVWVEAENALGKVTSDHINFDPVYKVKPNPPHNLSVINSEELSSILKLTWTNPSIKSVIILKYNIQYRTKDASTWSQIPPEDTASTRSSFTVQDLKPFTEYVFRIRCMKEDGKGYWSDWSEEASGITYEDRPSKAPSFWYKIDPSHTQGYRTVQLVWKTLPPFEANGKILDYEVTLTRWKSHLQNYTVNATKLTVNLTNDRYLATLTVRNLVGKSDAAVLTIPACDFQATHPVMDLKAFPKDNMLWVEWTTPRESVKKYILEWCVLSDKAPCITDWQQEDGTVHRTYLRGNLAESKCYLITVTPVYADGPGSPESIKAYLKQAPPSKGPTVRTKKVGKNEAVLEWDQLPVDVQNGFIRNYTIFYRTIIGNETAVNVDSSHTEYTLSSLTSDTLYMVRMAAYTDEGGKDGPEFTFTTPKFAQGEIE
# T1 sequence 2: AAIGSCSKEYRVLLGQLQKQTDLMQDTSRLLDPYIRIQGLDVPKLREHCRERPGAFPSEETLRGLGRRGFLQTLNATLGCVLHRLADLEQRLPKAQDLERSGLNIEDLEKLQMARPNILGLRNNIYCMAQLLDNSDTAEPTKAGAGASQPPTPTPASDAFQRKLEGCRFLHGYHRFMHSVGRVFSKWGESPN
# B1: soluble human LIFR (leukemia inhibitory factor receptor) (receptor, UniProt P42702 45-833, looked up)
# chain: QKKGAPHDLKCVTNNLQVWNCSWKAPSGTGRGTDYEVCIENRSRSCYQLEKTSIKIPALSHGDYEITINSLHDFGSSTSKFTLNEQNVSLIPDTPEILNLSADFSTSTLYLKWNDRGSVFPHRSNVIWEIKVLRKESMELVKLVTHNTTLNGKDTLHHWSWASDMPLECAIHFVEIRCYIDNLHFSGLEEWSDWSPVKNISWIPDSQTKVFPQDKVILVGSDITFCCVSQEKVLSALIGHTNCPLIHLDGENVAIKIRNISVSASSGTNVVFTTEDNIFGTVIFAGYPPDTPQQLNCETHDLKEIICSWNPGRVTALVGPRATSYTLVESFSGKYVRLKRAEAPTNESYQLLFQMLPNQEIYNFTLNAHNPLGRSQSTILVNITEKVYPHTPTSFKVKDINSTAVKLSWHLPGNFAKINFLCEIEIKKSNSVQEQRNVTIKGVENSSYLVALDKLNPYTLYTFRIRCSTETFWKWSKWSNKKQHLTTEASPSKGPDTWREWSSDGKNLIIYWKPLPINEANGKILSYNVSCSSDEETQSLSEIPDPQHKAEIRLDKNDYIISVVAKNSVGSSPPSKIASMEIPNDDLKIEQVVGMGKGILLTWHYDPNMTCDYVIKWCNSSRSEPCLMDWRKVPSNSTETVIESDEFRPGIRYNFFLYGCRNQGYQLLRSMIGYIEELAPIVAPNFTVEDTSADSILVKWEDIPVEELRGFLRGYLFYFGKGERDTSKMRVLESGRSDIKVKNITDISQKTLRIADLQGKTSYHLVLRAYTDGGVGPEKSMYVVTKENS
# notes: extracellular domain; Bought; also called soluble LIFR
# How the values were obtained:
# [1] = biological target: T1, gp130 bound OSM-WT (gp130:OSM-WT); assay: ELISA, apparent KD (KD,App), gp130 coated, saturating cytokine, soluble LIFR titrated (with gp130)
# Method: (§1) FIG. 13 graphically depicts an ELISA analysis of soluble OSMR and soluble LIFR binding with LIF, OSM-WT, OSM-M1 and OSM-M2 or gp130 bound LIF (gp130:LIF), OSM-WT (gp130:OSM-WT), OSM-M1 (gp130:OSM-M1) and OSM-M2 (gp130:OSM-M2). Cytokines (LIF, OSM-WT, OSM-M1 or OSM-M2) immobilized on an ELISA plate in the absence (A,C) or presence (B,D) of gp130 were treated with various concentrations of soluble OSMR (A,B) or soluble LIFR (C,D). Equilibrium KD values were estimated using a non-linear curve fitting to the binding data using GraphPad Prism (Graph Pad Software. LaJolla, Calif.). In addition, see Table 3.
# (§2) Enzyme-linked immunosorbent assay (ELISA): ELISA was used to evaluate the equilibrium binding strength of the interaction between the cytokines and their receptors. This technique has traditionally been used as a sensitive method to quantify the binding affinities between two interacting proteins. However, unlike in SPR, ELISA involves immobilization of the proteins on a flat plastic surface driven by hydrophobic and ionic interactions. This might cause some distortion in the 3 dimensional structure of immobilized protein which leads to inaccuracies in the estimation of dissociation constants. It is thus important to bear in mind that the values estimated using this technique are to be used only for comparison between species but not as true equilibrium binding constants. The results obtained using this technique will thus be presented as apparent equilibrium dissociation constants (K_{D,App}). For direct interaction studies, cytokines (LIF, OSM-WT, OSM-M1 or OSM-M2) were immobilized on the 96 well ELISA plate by incubating the wells with 200 μl of 5 nM cytokine solution in PBS, pH 7.4 overnight at 4° C. The wells were then blocked with blocking buffer (4% BSA in PBS) for 1 hour at room temperature. After washing with 250 μl of washing buffer (0.05% Tween-20 in PBS) 3 times, the cytokines were treated with a series of concentrations of soluble human LIFR (Catalog #249-LR-050/CF, R&D Systems, Minneapolis, Minn.) or OSMR (Catalog #4389-OR-050, R&D Systems, Minneapolis, Minn.) in 150 μl of blocking buffer for 2 hours.
# [2] = biological target: B1; assay: as above
# Method: as §1, §2
Kd [1],Kd [2],Binder
70.3 nM,–,B1
–,10.3 nM,"gp130 bound LIF (gp130:LIF) (other, Non-covalent complex formed on the plate: gp130 coated, then saturating cytokine; also called LIF with gp130) chain 1: ELLDPCGYISPESPVVQLHSNFTAVCVLKEKCMDYFHVNANYIVWKTNHFTIPKEQYTIINRTASSVTFTDIASLNIQLTCNILTFGQLEQNVYGITIISGLPPEKPKNLSCIVNEGKKMRCEWDGGRETHLETNFTLKSEWATHKFADCKAKRDTPTSCTVDYSTVYFVNIEVWVEAENALGKVTSDHINFDPVYKVKPNPPHNLSVINSEELSSILKLTWTNPSIKSVIILKYNIQYRTKDASTWSQIPPEDTASTRSSFTVQDLKPFTEYVFRIRCMKEDGKGYWSDWSEEASGITYEDRPSKAPSFWYKIDPSHTQGYRTVQLVWKTLPPFEANGKILDYEVTLTRWKSHLQNYTVNATKLTVNLTNDRYLATLTVRNLVGKSDAAVLTIPACDFQATHPVMDLKAFPKDNMLWVEWTTPRESVKKYILEWCVLSDKAPCITDWQQEDGTVHRTYLRGNLAESKCYLITVTPVYADGPGSPESIKAYLKQAPPSKGPTVRTKKVGKNEAVLEWDQLPVDVQNGFIRNYTIFYRTIIGNETAVNVDSSHTEYTLSSLTSDTLYMVRMAAYTDEGGKDGPEFTFTTPKFAQGEIE chain 2: not shown"
–,9.13 nM,"gp130 bound OSM-M2 (gp130:OSM-M2) (other, human, extracellular domain; Non-covalent complex formed on the plate: gp130 coated, then 200 nM OSM-M2; also called OSM-M2 with gp130; not shown: N-terminal FLAG tag) chain 1: ELLDPCGYISPESPVVQLHSNFTAVCVLKEKCMDYFHVNANYIVWKTNHFTIPKEQYTIINRTASSVTFTDIASLNIQLTCNILTFGQLEQNVYGITIISGLPPEKPKNLSCIVNEGKKMRCEWDGGRETHLETNFTLKSEWATHKFADCKAKRDTPTSCTVDYSTVYFVNIEVWVEAENALGKVTSDHINFDPVYKVKPNPPHNLSVINSEELSSILKLTWTNPSIKSVIILKYNIQYRTKDASTWSQIPPEDTASTRSSFTVQDLKPFTEYVFRIRCMKEDGKGYWSDWSEEASGITYEDRPSKAPSFWYKIDPSHTQGYRTVQLVWKTLPPFEANGKILDYEVTLTRWKSHLQNYTVNATKLTVNLTNDRYLATLTVRNLVGKSDAAVLTIPACDFQATHPVMDLKAFPKDNMLWVEWTTPRESVKKYILEWCVLSDKAPCITDWQQEDGTVHRTYLRGNLAESKCYLITVTPVYADGPGSPESIKAYLKQAPPSKGPTVRTKKVGKNEAVLEWDQLPVDVQNGFIRNYTIFYRTIIGNETAVNVDSSHTEYTLSSLTSDTLYMVRMAAYTDEGGKDGPEFTFTTPKFAQGEIE chain 2: AAIGSCSKEYRVLLGQLQKQTDLMQDTSRLLDPYIRIQGLDVPKLREHCRERPGAFPSEETLRGLGRRGFLQTLNATLGCVLHRLADLEQRLGGGNIEDLEKLQMARPNILGLRNNIYCMAQLLDNSDTAEPTKAGAGASQPPTPTPASDAFQRKLEGCRFLHGYHRFMHSVGRVFSKWGESPN"
–,12.6 nM,"gp130 bound OSM-M1 (gp130:OSM-M1) (other, human, extracellular domain; Non-covalent complex formed on the plate: gp130 coated, then 200 nM OSM-M1; also called OSM-M1 with gp130; not shown: N-terminal FLAG tag) chain 1: ELLDPCGYISPESPVVQLHSNFTAVCVLKEKCMDYFHVNANYIVWKTNHFTIPKEQYTIINRTASSVTFTDIASLNIQLTCNILTFGQLEQNVYGITIISGLPPEKPKNLSCIVNEGKKMRCEWDGGRETHLETNFTLKSEWATHKFADCKAKRDTPTSCTVDYSTVYFVNIEVWVEAENALGKVTSDHINFDPVYKVKPNPPHNLSVINSEELSSILKLTWTNPSIKSVIILKYNIQYRTKDASTWSQIPPEDTASTRSSFTVQDLKPFTEYVFRIRCMKEDGKGYWSDWSEEASGITYEDRPSKAPSFWYKIDPSHTQGYRTVQLVWKTLPPFEANGKILDYEVTLTRWKSHLQNYTVNATKLTVNLTNDRYLATLTVRNLVGKSDAAVLTIPACDFQATHPVMDLKAFPKDNMLWVEWTTPRESVKKYILEWCVLSDKAPCITDWQQEDGTVHRTYLRGNLAESKCYLITVTPVYADGPGSPESIKAYLKQAPPSKGPTVRTKKVGKNEAVLEWDQLPVDVQNGFIRNYTIFYRTIIGNETAVNVDSSHTEYTLSSLTSDTLYMVRMAAYTDEGGKDGPEFTFTTPKFAQGEIE chain 2: AAIGSCSKEYRVLLGQLQKQTDLMQDTSRLLDPYIRIQGLDVPKLREHCRERPGAFPSEETLRGLGRRGFLQTLNATLGCVLHRLADLEQRLGAPSGLNIEDLEKLQMARPNILGLRNNIYCMAQLLDNSDTAEPTKAGAGASQPPTPTPASDAFQRKLEGCRFLHGYHRFMHSVGRVFSKWGESPN"
